According to patent publication US8030017B2, “Thermostable luciferases and methods of production” (Promega Corporation, priority 1997, dated 2011):
Residue numbers refer to the chain shown, from its start.

B1: Luc78-0B10: mutant luciferase, SEQ ID NO:19 (protein)
chain: MADKNILYGPEPFYPLADGTAGEQMFDALSRYADISGCIALTNAHTKENVLYEEFLKLSCRLAESFKKYGLKQNDTIAVCSENGLQFFLPVIASLYLGIIAAPVSDKYIERELIHSLGIVKPRIIFCSKNTFQKVLNVKSKLKSVETIIILDLNEDLGGYQCLNNFISQNSDSNLDVKKFKPYSFNRDDQVALVMFSSGTTGVPKGVMLTHKNIVARFSLAKDPTFGNAINPTTAILTVIPFHHGFGMMTTLGYFTCGFRVVLMHTFEEKLFLQSLQDYKVESTLLVPTLMAFLAKSALVEKYDLSHLKEIASGGAPLSKEIGEMVKKRFKLNFVRQGYGLTETTSAVLITPKGDARPGSTGKIVPFHAVKVVDPTTGKILGPNEPGELYFKGAMIMKGYYNNEEATKAIIDNDGWLRSGDIAYYDNDGHFYIVDRLKSLIKYKGYQVAPAEIEGILLQHPYIVDAGVTGIPDEAAGELPAAGVVVQTGKYLNEQIVQDFVSSQVSTAKWLRGGVKFLDEIPKGSTGKIDRKVLRQMFEKHTNG
modifications: Mutant luciferase
B2: Luc49-7C6: mutant luciferase, SEQ ID NO:14 (protein)
chain: MADKNILYGPEPFYPLADGTAGEQMFYALSRYADISGCIALTNAHTKENVLYEEFLKLSCRLAESFKKYGLKQNDTIAVCSENGLQFFLPIIASLYLGIIAAPVSDKYIERELIHSLGIVKPRIIFCSKNTFQKVLNVKSKLKYVETIIILDLNEDLGGYQCLNNFISQNSDINLDVKKFKPYSFNRDDQVALVMFSSGTTGVSKGVMLTHKNIVARFSLAKDPTFGNAINPTTAILTVIPFHHGFGMMTTLGYFTCGFRVVLMHTFEEKLFLQSLQDYKVESTLLVPTLMAFLAKSALVEKYDLSHLKEIASGGAPLSKEIGEMVKKRFKLNFVRQGYGLTETTSAVLITPNNDVRPGSTGKIVPFHAVKVVDPTTGKILGPNEPGELYFKGDMIMKGYYNNEEATKAIINKDGWLRSGDIAYYDNDGHFYIVDRLKSLIKYKGYQVAPAEIEGILLQHPYIVDAGVTGIPDEAAGELPAAGVVVQTGKYLNEQIVQNFVSSQVSTAKWLRGGVKFLDEIPKGSTGKIDRKVLRQMFEKHTNG
modifications: Mutant luciferase
B3: 49-0g12: mutant luciferase, SEQ ID NO:16 (protein)
chain: B2 chain with A2E, A216V, L294F, P386T, N412T
modifications: Mutant luciferase
B4: 49-7a5: mutant luciferase, SEQ ID NO:17 (protein)
chain: B2 chain with A2E, L220I, P386T
modifications: Mutant luciferase

What was measured:
[1] = Michaelis-Menten constant for ATP of purified mutants; type: biochemical; conditions: purified enzyme
Source text: (§1) Substrate binding was screened by measuring an apparent composite Km (see Example 2) for luciferin and ATP. […] The Km for luciferin rose while the Km for ATP declined (Table 3). The reason for this change is unknown, although it can be speculated that more efficient release of oxyluciferin or luciferin inhibitors could lead to more rapid enzyme turnover.
(§2) Protein purification: Four mutants that are described herein (Luc[T249M], Luc49-7C6, Luc78-0B10, and Luc90-1B5) were purified using a previously published procedure (Hastings et al., 1996).

[2] = Michaelis-Menten constant for luciferin of purified mutants; type: biochemical; conditions: purified enzyme
Source text: as §1, §2

[3] = Robotic quantitative screen of E. coli lysates: luminescence activity (Li), expression/specific activity; type: biochemical; conditions: relative value
Experimental: A plate containing cells is retrieved from the carousel and placed on the shaker for 3-5 minutes to fully mix the cells. The cells tend to settle from solution upon standing.
To measure Optical Density (O.D.), the plate is moved from the shaker to the locator near the luminometer; the lid is removed and the plate placed into the luminometer. The O.D. is measured using a 620 nm filter.
To prepare a cell lysate, the plate of cells is first retrieved from the refrigerator and mixed on the shaker to resuspend the cells. A new plate from the carousel without a lid is placed in the reagent dispenser and 20 μl of Buffer A is added to each well. This is placed in the pipetting station.
The plate is then moved to the reagent dispenser to add 175 μl of Buffer B, and then mixed on the shaker for about 15 minutes or more. The combination of the freeze/thaw and Buffer B will cause the cells to lyse.
(§3) One daughter plate is placed in the luminometer and the 1X assay method is used. After the assay, the plate is placed in the ambient incubator, and the second daughter plate is placed in the luminometer. For the second plate, the 0.02X assay method is used. This plate is discarded, and the first plate is returned from the incubator to the luminometer. The repeat assay method is used (i.e., no reagent is injected). Afterwards, the plate is again returned to the ambient incubator.
1X Assay reagent: 5 μM Luciferin; 175 μM ATP; 20 mM Tricine, pH 8.0; 0.1 mM EDTA
(§4) The following criteria were used for screening purposes. The temperature chosen for the enzyme stability parameter was such that the parent enzyme would decay 100 to 1000 fold over 10 hours (see Table 1). Criteria 1 is achieved manually; data for criteria 2-6 is generated by robotic analysis. For all criteria, the maximum value as described is selected. • 1. In vivo screen. The brightest clones are selected at a given temperature. • 2. Expression/specific activity. The value for normalized luminescence is calculated as the ratio of luminescence to optical density. The value is reported as the ratio with the reference value. • 3. Enzyme stability. Measurements of normalized luminescence of the incubated samples (3 taken over about 15 hours) are fitted to In(L)=In(L0)−(t/τ), where L is normalized luminescence and t is time. τ is a measure of the enzyme stability. The value is reported as the ratio with the reference value, and the correlation coefficients are calculated. • 4. Substrate binding. Measurements of normalized luminescence with 1X and 0.02X are taken at the initial reading set, and 1X and 0.06X are taken at the 5 hour set. The ratio of the 0.02X:1X and 0.06X:1X gives the relative luminescence at 0.02X and 0.06X concentrations. These values, along with the relative luminescence at 1X (i.e., 1), are fitted to a Lineweaver-Burk plot to yield the Km:app,total for the substrates ATP, luciferin, and CoA. The values are reported as the inverse ratio with the reference value, and the correlation coefficients are calculated. • 5. Signal stability. The luminescence of the initial IX luminescent reactions are re-measured 3 additional times over about 15 hours. These values are fitted to In(L)=In(L0)−(t/τ) and the integral over t (15 hours) is calculated. Signal stability is then calculated as S=(1−int(L)/L0t)^2. The values are reported as the inverse ratio with the reference value, and the correlation coefficients are calculated. • 6. Composite fitness. The values of criteria 2 through 5 are combined into a single composite value of fitness (or commercial utility). This value is based on a judgment of the relative importance of the other criteria. This judgment is given below:
Normalize luminescence data: For each measurement of luminescence in the eight daughter plates, the normalized luminescence is calculated by dividing the relative light units by the optical density of the original plate. […]

[4] = Thermostability (half-life, retained activity) of luciferases incubated in aqueous solution at different temperatures; type: physicochemical; conditions: for thermostability compared with parent enzyme: 4° C., times of less than 15 days (FIG. 49); for half-life: 22° C. (FIGS. 9, 10); for Thermostability Of Luciferase Activity (Half-Life In Hours): purified enzyme
Source text: As defined herein, a “thermostable” enzyme, e.g., a luciferase, or an enzyme which has “thermostability”, is an enzyme which under certain conditions, e.g., at certain temperature, in aqueous solution and/or for certain periods of time, has an increased retention of activity relative to a reference enzyme. For example, for a thermostable luciferase, a reference luciferase may be native wild-type luciferase or recombinant wild-type luciferase. Preferably, for beetle luciferases, the activity is luminescence under conditions of saturation with luciferin and ATP. One measure of thermostability of an enzyme is the half-life of the enzyme in an aqueous solution (the time over which 50% of the activity is lost) at a stated temperature.
as §2
[…] Enzyme stability was determined from diluted proteins incubated at different temperatures, and aliquots were removed at different time points. A linear regression of the natural log of the luminescence and time was calculated. Half-life was calculated as the 1n(0.5)/slope of the regression.

[5] = Robotic quantitative screen of E. coli lysates: signal stability (S), sustained enzymatic turnover; type: biochemical; conditions: inverse ratio with reference
Experimental: as §3
The plate in the ambient incubator is returned to the luminometer and the repeat assay method is again used. The plate is returned afterwards to the ambient incubator.
The plate in the ambient incubator is returned to the luminometer and the repeat assay method is again used. The plate is discarded afterwards.
as §4
Calculate signal stability (S): For each sample, use linear regression to fit In(L)=In(L0)[…] using the four luminescence measurements of the initial microplate with 1X substrate concentrations (Plates 1, 3, 4, and 7). Also calculate the regression coefficient. From the calculated values of T and L0, calculate the integral of luminescence by int(L)=τL0(1−exp(−tf/τ)), where tf is the average time of the last measurement (e.g., 15 hours). The signal stability is calculated as S=(1−int(L)/Litf)^2, where Li is the initial measurement of normalized luminescence with 1× substrate concentration (Plate 1).
[Note: To correct for evaporation, an equation S=(1+K−int(L)/Litf)^2, may be used where 1/K=2(relative change of liquid volume at tf).]
Calculate the reference-normalized values: For the criteria parameter of each sample, a reference-normalized value is determined by calculating the ratio or inverse ratio with the respective reference value. […]

[6] = Robotic quantitative screen of E. coli lysates: enzyme stability (tau) at elevated temperature; type: physicochemical; conditions: relative value
Experimental: Two white assay plates (Labsystems #9502887) are obtained from the plate feeder and placed in the pipetter. The incubation plate from the shaker is placed in the pipetter, and the lid removed and placed on the nearby locator. Two daughter plates are made using the pipetting procedure (see “Create Pair of Daughter Plates from Incubation Plate”). Afterwards, the lid is replaced on the parent plate, and the plate is placed in a high temperature incubator. [ranging from 31° C. to about 65° C. depending on the clone.]
To begin the second set of measurements, the plate from the high temperature incubator is placed in the shaker to mix.
In the final set of measurements, the plate from the high temperature incubator is again placed in the shaker to mix.
as §4
Calculate enzyme stability (τ): For each sample, use linear regression to fit In(L1x)=In(L0)−(t/τ) using the three luminescence measurements with 1X substrate concentrations (Plates 1, 5, 8). Also calculate the regression coefficient.
Calculate the reference-normalized values: For the criteria parameter of each sample, a reference-normalized value is determined by calculating the ratio or inverse ratio with the respective reference value. The reference-normalized values are Li/Lir, τ/τr, Kmr/Km:app,total, and Sr/S, where reference values are calculated from the equations of the appropriate reference surface.
“Enzyme stability” was determined by the rate of activity loss from cell lysates over 10 hours. In successive rounds of evolution the incubation temperature of the lysates was increased.
Robotic Automation: Robotic automation was used in the quantitative screens to accurately perform the large number of required quantitative assays on the cultured cells. […]

[7] = Control is Luc71-5D4 at 60° C. (=1)
[8] = Room Temperature (about 25° C.)
[9] = Control is Luc46-2H3 at 54° C. (=1)

Molecule	Km [1] [µM]	Km [2] [µM]	Luminescence (Li) [3, 7]	thermostability compared with parent enzyme [4]	half-life [4] [days]	Thermostability Of Luciferase Activity (Half-Life In Hours) ([4]; 37° C.) [h]	Thermostability Of Luciferase Activity (Half-Life In Hours) ([4]; 50° C.) [h]	half-life calculated from regression of log luminescence ([4]; 60° C. (FIGS. 6, 8)) [hours]	Thermostability Of Luciferase Activity (Half-Life In Hours) ([4]; 60° C.) [h]	half life calculated from regression of log luminescence ([4]; FIG. 5, temperature not given) [hours]	Thermostability Of Luciferase Activity (Half-Life In Hours) [4, 8] [h]	Signal stability (S) [5, 7]	Enzyme stability (tau) [6, 7]	Luminescence (Li) [3, 9]	half-life calculated from regression of log luminescence ([4]; 50° C. (FIG. 7)) [hours]	Signal stability (S) [5, 9]	Enzyme stability (tau) [6, 9]
B1	3.4	1.6	1.93	not distinguishable from the parent enzyme	109	220	47	38	15	144	3000	0.9926	2				
B2	14	0.99		not distinguishable from the parent enzyme	64	68	31	2.9	6.3		430			1.12	100.5	1.01	1.9
B3														1		1.08	1.58
B4														1.08		0.99	1.44
